Test results: patent publication US5147794

Tested on: KasI restriction endonuclease (recombinant, cell extract) (Kluyvera ascorbata)
Test: cleavage_in_vitro
Conditions: lambda DNA, 37 C, 1 h; nearly 10^6

Sequence: GGCGCC (double strand) [KasI recognition site (lambda DNA)]
- activity (units per gram of cells): 1e+06
